Reference: US20140370037A1 (published 2014)

Target: T1, human DLL3 antigen (human, UniProt Q9NYJ7 27-492, limits assumed)
T1 construct: also called immobilized human DLL3; recombinant human DLL3
T1 sequence (looked up): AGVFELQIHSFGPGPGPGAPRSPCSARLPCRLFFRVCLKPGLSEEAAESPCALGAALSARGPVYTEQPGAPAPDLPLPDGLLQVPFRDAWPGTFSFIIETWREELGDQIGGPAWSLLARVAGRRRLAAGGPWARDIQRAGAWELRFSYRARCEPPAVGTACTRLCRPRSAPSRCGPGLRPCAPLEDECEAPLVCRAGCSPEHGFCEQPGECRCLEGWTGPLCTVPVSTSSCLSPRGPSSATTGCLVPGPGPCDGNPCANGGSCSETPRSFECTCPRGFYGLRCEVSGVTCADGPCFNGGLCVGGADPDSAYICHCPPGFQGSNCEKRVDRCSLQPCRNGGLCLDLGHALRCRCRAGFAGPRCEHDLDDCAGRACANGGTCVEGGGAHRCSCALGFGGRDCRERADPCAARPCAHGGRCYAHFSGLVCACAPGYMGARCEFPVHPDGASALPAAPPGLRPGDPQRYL
Experiment: ELISA or flow cytometry screen

Binder	binding result
SC16.81 (antibody, V domains shown, murine mAb) VH: QVQLKESGPVLVAPSQSLSITCTVSGFSLTSYGVHWVRQPPGKGLEWLGVIWAGGSTNYNSALMSRLSISKDNSKSQVFLKMNSLQTDDTAMYYCAKQGNFYAMDYWGQGTSVTVSS VL: QIVLTQSPAIMSASLGERVTLTCTASSSVSSSYLHWYQQKPGSSPKLWIYSTSNLASGVPTRFSGSGSGTSYSLRISSMEAEDAATYYCHQYNRSPLTFGAGTKLELK	binds
SC16.84 (antibody, V domains shown, murine mAb) VH: EVQLQQSGPELVKPGASMKISCKASGYSFTGYTMNWVKQSHGKNLEWIGLINPYNGGTTYNQKFKGKATLTVDKSSSTAYMELLSLTSEDSAVYYCALGYYGNYRRYFDVWGAGTTVTVSS VL: DIQMTQSPSSLSASLGGKVTITCKASQDIKKYIAWYQHKPGKGPRLLIHYTSTLEPGIPSRFSGSGSGRDYSFSISNLEPEDIATYYCLQYDILWTFGGGTKLEIK	binds
SC16.88 (antibody, V domains shown, murine mAb) VH: QVQLQQSGAELARPGASVKLSCKASGYTCTSYWMQWVKQRPGQGLEWIGAIYPGDGDTRYTQKFKGKATLTADKSSSTAYMQLSSLASEDSAVYYCARGRRTEAWFAYWGQGTLVTVSA VL: not shown	binds
SC16.8 (antibody, V domains shown, murine mAb) VH: QAQLQQSGAELVRPGTSVKVSCKASGYAFTNYLIEWVKQRPGQGLEWIGVINPGTGGTNYNENFKGKATLTADKSSSTAYMQLSSLTSDDSAVYFCARSPYDYHEGAMDYWGQGTSVTVSS VL: EIQMTQSPSSMSASLGDRITITCQATQDIVKNLNWYQQKPGKPPSFLIYYAIELAEGVPSRFSGSGSGSDYSLTISNLESEDFADYYCLQFYEFPFTFGAGTKLELK	binds
SC16.101 (antibody, V domains shown, murine mAb) VL: QIVLTQSPAIMSASLGERVTMTCTASSSVSSSYLHWYQQKPGSSPKLWIYSTSNLASGVPARFSGSESGTSYSLTISNMEAEDAATYYCHQYHRSPFTFGSGTKLEIK V domain: QVTLKESGPGILQPSQTLSLTCSFSGFSLSTSGMGVGWIRQPSGKGLEWLAHIWWDDVKRYNPALKSRLTISKDASSSQVFLKIASVDTAETATYYCAHILDRAYYFDYWGQGTTLTVTS	binds
SC16.104 (antibody, V domains shown, murine mAb) VH: QVQLKESGPDLVQPSQTLSLTCTVSGFSLTFYGVHWVRQPPGKGLEWVGTMGWDDKKYYNSALKSRLSISRDTSKNQVFLKLSSLQTEDTAMYYCTRGGTGFDYWGQGTTLTVSS VL: QIVLSQSPAILSASPGEKVTMTCRASSSVSYIHWYRQKPGSSPKPWIYATSNLASGVPARFSGSGSGTSYSLTISRVEAEDAATYYCQQWSSNPPTFGAGTKLELK	binds
SC16.106 (antibody, V domains shown, murine mAb) VH: QVQLKQSGPGLVAPSQSLFITCTVSGFSLTSYEINWVRQPPGKGLEWLGVIWTGGSTNYNSALISRLSISKDNSKSLVFLKMNSLQTDDTAIYYCVRGVYAMDYWGQGTSVTVSS VL: DIKMTQSPSSMYASLGERVTITCKASQDINSYLSWFQQKPGKSPKTLIYRANRLVDGVPSRFSGSGSGQDYSLTISSLEYEDMGIYYCLQYDEFPFTFGSGTKLEIK	binds
SC16.107 (antibody, V domains shown, murine mAb) VH: EVQLQQSGPELVKPGASVKMSCKASGYTFTNYVMHWVKQKPGQGLEWIGYINPYNDGTKYNEKFKGKATLTSDKSSTTAYMALSSLTSEDSAVYYCAVAYYSNWGFAYWGQGTLVTVSA VL: DIVMTQSHKFMSTSVGDRVSITCKASQDVNTAVGWYQQKPGQSPKLLIYSASYRYTGVPDRFTGSGSGTDFTFTISSVQAEDLAVYYCQQHYSSPYTFGGGTKLEIKR	binds
SC16.109 (antibody, V domains shown, murine mAb) VL: QIVLTQSPAIMSASPGEKVTMTCSASSSVSYMYWYQQKPGSSPRLLIYDTSNLASGVPVRFSGSGSGTSFSLTISRMEAEDTATYYCQEWSGNPLTFGDGTKLELK V domain: QIQLVQSGPELKKPGETVKISCKASGYTFTNYGMNWVKQAPGKGLKWMGWINTYTGEPAYADDFKGRFAFSLETSASAAYLQINNLKNEDTATFFCANMRPTRGFAYWGQGTLGTVSA	binds
SC16.110 (antibody, V domains shown, murine mAb) VH: EVQLQQSGPGLVRTGASVKISCKASGYSFTGYYMHWVKQSHGKSLEWIGYISCYNGATTYNQNFKGKATFIVDTSSSTAYMQFNSLTSEDSAVYYCARSDGGHAMDYWGQGTSVTVSS VL: NIVMTQTPKFLLVSAGDRVTITCKASQSVSNDVAWYQQKPGQSPKLLIYYASNRYTGVPDRFTGSGYGTDFTFTISTVQAEDLAVYFCQQDYSSPPTFGGGTKLEIK	binds
SC16.111 (antibody, V domains shown, murine mAb) VH: EVQLQQSGPELEKPGASVKISCKASGYSFTGYNMNWVKQSNGKSLEWIGNIDPYYGGSSYKQKFEGKATLTVDKSSSTAYMQLKSLTSEDSAVYYCARGGSNFFDYWGQGTTLTVSS VL: DIQMTQSPASLAASVGETVTITCRASENIYYSLAWYQQKQGKSPQLLIYNANSLEDGVPSRFSGSGSGTQYSMKINSMQPEDTATYFCKQTYDVPLTFGAGTKLELK	binds
SC16.10 (antibody, V domains shown, murine mAb) VH: QVTLKESGPGILQSSQTLSLTCSFSGFSLSTSGMGVGWIRQPSGKGLEWLAHIWWDDVKRYNPVLKSRLTISKDTSSSQVFLKIASVDTADTATYYCARLVDDLYYFDYWGQGTTLTVSS VL: QIVLTQSPAIMSASLGERVTMTCTASSSVSSSYLHWYQQKPGSSPKLWIYSTSNLASGVPTRFSGSGSGTSYSLTISSMEAEDAATYYCHQYHRSPFTFGSGTKLEIK	binds
SC16.114 (antibody, V domains shown, murine mAb) VH: EVQLQQSGAELVKPGASVKLSCTASGFNIKDTYIHWVKQRPEQGLEWIGRIDPANGNTKYDPKFQGKATITPDTSSNTAYLQLSSLTSEDTAVYYCARSWRNYGSSFWYFDVWGAGTTVTVSS VL: QIVLSQSPAILSASPGEKVTMTCRASSSVSYMHWYQQKPGSSPKPWIYATSNLASGVPARFSGSGSGTSYSLTISRVEAEDAATYYCQQWSSNPYTFGGGTKLEIKR	binds
SC16.117 (antibody, V domains shown, murine mAb) VH: QVQLKESGPGLVAPSQSLSIPCTVSGFSLTNYGVHWVRQPPGKGLEWLGVIWAGGITNYNSALMSRLSISEDNSKSQVFLKMNSLQTDDTAMYYCARNLGPYAMDYWGQGTSVTVSS VL: DIQMNQSPSSLSASLGDTITITCHVSQNINVWLSWYQQKPGNIPKLLIQKASNLHTGVPSRFSGSGSGTGFTLTISSLQPEDIATYYCQQGQSYPFTFGSGTKLEIK	binds
SC16.118 (antibody, V domains shown, murine mAb) VH: EVQLQQSGPDLVKPGASVKISCKASGYSFTGYYMHWVKQSHGKSLEWIGRVNPNNGGTSYNQKFKGKAILTADKSSSTAYMELRSLTSEDSAVYYCARGSYDYAEGWGQGTLVTVSA VL: DIVLTQSPASLAVSLGQRATISCKASQSVDYDGDSYLTWYQQKPGQPPKLLIYAASNLESGIPARFSGSGSGTDFTLNIHPVEEEDAATYYCQQSNEDPYTFGGGTKLEIKR	binds
SC16.134 (antibody, V domains shown, murine mAb) VH: EVQLQQSGPDLVKPGASVKISCKASGYSFTGYYMHWVKQSHGKRLEWIGRVNPNNGGTNYNQKFKGKAILTVDKSSSTAYMELRSLTSEDSAVYYCARGSYDNAEGWGQGTLVTVSA VL: DIVLTQSPASLAVSLGQRATISCKASQSVDHAGDSYMNWYQQKPGQPPKLLIYAASNLESGIPARFSGSGSGTDFTLNIHPVEEEDAATYYCQQSNEDPYTFGGGTKLEIKR	binds
SC16.121 (antibody, V domains shown, murine mAb) VH: EVQLVESGGGLVQPKGSLKLSCAASGFTFNTYAMNWVRQAPGKGLEWVARIRIKSNNYATYYADSVKDRFTISRDDSQNMLYLQMNNLKTEDTAVYYCVRQGYSYDWGPWFAYWGQGTLVTVSA VL: QIVLTQSPAIMSASPGEKVTITCSASSSVSYMHWFQQKPGTSPKLWIYSTSNLASGVPARFSGSGSGTSYSLTISRMEAEDAATYYCQQRSSYPPTFGGGTKLEIKR	binds
SC16.122 (antibody, V domains shown, murine mAb) VH: EVQLVESGGGLVKPGGSLKLSCAASGFTFSDYYMFWVRQTPEKRLEWVATISDGGSYTYFPDSVKGRFTISRDNAQNNLYLQMSSLKSEDTAMYYCARAGTLYAMDYWGQGTSVTVSS VL: DIVMTQSQKFMSTSVGDRVSVTCKASQNVGTNVAWYQQKPGQSPKVLIYSASYRYSGVPDRFTGSGSGTDFTLTISNVQSEDLAEFFCQQYNSYPLTFGGGTKLEIK	binds
SC16.123 (antibody, V domains shown, murine mAb) VH: QVALKESGPGILQPSQTLSLTCSFSGFSLSTSGMGVGWIRQPSGKGLEWLAHIWWDDVKRYNPALKSRLTISKDTSSSQVFLKIASVDTADTATYYCARMEDYGSSSYFDFWGHGTTLTVSS VL: QIVLTQSPAIMSASLGERVTMTCTASSSVSSSYLHWYQQKPGSSPKLWIYSTSNLASGVPARFSGSGSGTSYSLTISSMETEDAATYYCHQYHRSPFTFGSGTKLEIK	binds
SC16.11 (antibody, V domains shown, murine mAb) VH: QIQLVQSGPELKKPGETVKISCKASGYTFTDYSMHWVKQAPGKGLKWMGWINTETVEPTYADDFMGRFAFSLETSASTAFLQINNLENEDTATYFCARFGSYAMDYWGQGTSVTVSS VL: not shown	binds
SC16.124 (antibody, V domains shown, murine mAb) VH: EVQLQQSGPELVKPGASVKMSCKASGYTFTSYVMHWVKQKPGQGLEWIGYINPYNDGTKYNEKFKGKATLTSDKSSSTAYMELSSLTSEDSAVYYCARGALYYGNYLGYFDVWGAGTTVTVSS VL: DIQMTQSPASQSASLGESVTITCLASQTIGTWLAWYQQKPGKSPQLLISAATSLADGVPSRFSGSGSGTKFSFKISSLQAEDFVSYYCQQLYSTPWTFGGGTKLEIK	binds
